20 molecules from patent publication US20120219562A1 (AbbVie / Abbott, published 2012) can be followed below.

The test deals with T1, human interleukin 12 (human, UniProt P29459 23-219; P29460 23-328).
T1 construct: heterodimer of p35 and p40 linked by a disulfide bridge; also called hIL-12; IL-12
T1 sequence (looked up) 1: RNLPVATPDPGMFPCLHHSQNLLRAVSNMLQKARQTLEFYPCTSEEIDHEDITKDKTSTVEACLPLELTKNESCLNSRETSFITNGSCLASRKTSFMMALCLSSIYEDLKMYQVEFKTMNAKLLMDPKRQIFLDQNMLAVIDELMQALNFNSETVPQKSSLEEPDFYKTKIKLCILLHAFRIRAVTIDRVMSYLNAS
T1 sequence (looked up) 2: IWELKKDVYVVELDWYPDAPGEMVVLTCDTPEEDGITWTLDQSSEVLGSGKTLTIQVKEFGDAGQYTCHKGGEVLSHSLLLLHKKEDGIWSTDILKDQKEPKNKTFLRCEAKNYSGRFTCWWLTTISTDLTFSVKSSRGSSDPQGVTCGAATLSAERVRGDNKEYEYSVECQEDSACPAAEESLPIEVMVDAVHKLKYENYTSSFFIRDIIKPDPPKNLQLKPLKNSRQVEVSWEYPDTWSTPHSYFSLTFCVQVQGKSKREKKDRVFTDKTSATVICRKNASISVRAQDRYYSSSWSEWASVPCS
Description: SPR (BIAcore). Background: Surface plasmon resonance follows binding to a sensor surface in real time, without labels.

B1: 170-21 (antibody, V domains shown)
VH: QVQLVQSGGGVVQPGRSLRLSCAASGFTFSSYGMHWVRQAPGKGLEWVAFIRYDGSNKYYADSVKGRFTISRDNSKNTLYLQMKSLRAEDTAVYYCTTHGSQDNWGQGTMVTVSS
VL: SYVLTQPPSVSGTPGQRVTISCSGGRSNIGSNTVKWYQQLPGTAPKLLIYGNDQRPSGVPDRFSGSKSGTSASLAITGVQAEDEADYYCQSYDRGFTGPRLFGTGTKVTVL
In general, koff refers to a measure of how fast the partners let go of each other. Lower therefore signals a long-lived complex. Molecule B1 returned a koff of 0.00389 s⁻¹.

B2: 73-G6 (antibody, V domains shown)
VH: QVQLVQSGGGVVQPGRSLRLSCAASGFTFSSYGMHWVRQAPGKGLEWVAFIRYDGSNKYYADSVKGRFTISRDNSKNTLYLQMKSLRAEDTAVYYCTTSGSYDYWGQGTMVTVSS
VL: SYVLTQPPSVSGTPGQRVTISCSGGRSNIGSNTVKWYQQLPGTAPKLLIYGNDQRPSGVPDRFSGSKSGTSASLAITGVQAEDEADYYCQSYNTDFTGSRVFGTGTKVTVLG
Regarding B2, the koff was 0.0063 s⁻¹.

B3: 73-G4 (antibody, V domains shown)
VH: QVQLVQSGGGVVQPGRSLRLSCAASGFTFSSYGMHWVRQAPGKGLEWVAFIRYDGSNKYYADSVKGRFTISRDNSKNTLYLQMKSLRAEDTAVYYCTTSGSYDYWGQGTMVTVSS
VL: SYVLTQPPSVSGTPGQRVTISCSGGRSNIGSNTVKWYQQLPGTAPKLLIYGNDQRPSGVPDRFSGSKSGTSASLAITGVQAEDEADYYCQSYDMRFTGSRVFGTGTKVTVLG
In turn, B3 came in with a koff of 0.00658 s⁻¹.

B4: 73-G3 (antibody, V domains shown)
VH: QVQLVQSGGGVVQPGRSLRLSCAASGFTFSSYGMHWVRQAPGKGLEWVAFIRYDGSNKYYADSVKGRFTISRDNSKNTLYLQMKSLRAEDTAVYYCTTSGSYDYWGQGTMVTVSS
VL: SYVLTQPPSVSGTPGQRVTISCSGGRSNIGSNTVKWYQQLPGTAPKLLIYGNDQRPSGVPDRFSGSKSGTSASLAITGVQAEDEADYYCHSYDTRFTGSRVFGTGTKVTVLG
Consider B4, for which the koff was 0.0035 s⁻¹.

B5: 73-D5 (antibody, V domains shown)
VH: QVQLVQSGGGVVQPGRSLRLSCAASGFTFSSYGMHWVRQAPGKGLEWVAFIRYDGSNKYYADSVKGRFTISRDNSKNTLYLQMKSLRAEDTAVYYCTTSGSYDYWGQGTMVTVSS
VL: SYVLTQPPSVSGTPGQRVTISCSGGRSNIGSNTVKWYQQLPGTAPKLLIYGNDQRPSGVPDRFSGSKSGTSASLAITGVQAEDEADYYCHSSDSGFTGSRVFGTGTKVTVLG
Consider B5, for which the koff is 0.00357 s⁻¹.

B6: 73-H2 (antibody, V domains shown)
VH: QVQLVQSGGGVVQPGRSLRLSCAASGFTFSSYGMHWVRQAPGKGLEWVAFIRYDGSNKYYADSVKGRFTISRDNSKNTLYLQMKSLRAEDTAVYYCTTSGSYDYWGQGTMVTVSS
VL: SYVLTQPPSVSGTPGQRVTISCSGGRSNIGSNTVKWYQQLPGTAPKLLIYGNDQRPSGVPDRFSGSKSGTSASLAITGVQAEDEADYYCQSYDSGFTGSRVFGTGTKVTVLG
Molecule B6 had an off-rate (koff) of 0.00593 s⁻¹.

B7: 73-D4 (antibody, V domains shown)
VH: QVQLVQSGGGVVQPGRSLRLSCAASGFTFSSYGMHWVRQAPGKGLEWVAFIRYDGSNKYYADSVKGRFTISRDNSKNTLYLQMKSLRAEDTAVYYCTTSGSYDYWGQGTMVTVSS
VL: SYVLTQPPSVSGTPGQRVTISCSGGRSNIGSNTVKWYQQLPGTAPKLLIYGNDQRPSGVPDRFSGSKSGTSASLAITGVQAEDEADYYCHSYDTKFTGSRVFGTGTKVTVLG
Regarding B7, the koff was 0.00536 s⁻¹.

B8: 73-F6 (antibody, V domains shown)
VH: QVQLVQSGGGVVQPGRSLRLSCAASGFTFSSYGMHWVRQAPGKGLEWVAFIRYDGSNKYYADSVKGRFTISRDNSKNTLYLQMKSLRAEDTAVYYCTTSGSYDYWGQGTMVTVSS
VL: SYVLTQPPSVSGTPGQRVTISCSGGRSNIGSNTVKWYQQLPGTAPKLLIYGNDQRPSGVPDRFSGSKSGTSASLAITGVQAEDEADYYCHSYDMGFTGSRVFGTGTKVTVLG
B8 came in with a koff of 0.00587 s⁻¹.

B9: 73-B2 (antibody, V domains shown)
VH: QVQLVQSGGGVVQPGRSLRLSCAASGFTFSSYGMHWVRQAPGKGLEWVAFIRYDGSNKYYADSVKGRFTISRDNSKNTLYLQMKSLRAEDTAVYYCTTSGSYDYWGQGTMVTVSS
VL: SYVLTQPPSVSGTPGQRVTISCSGGRSNIGSNTVKWYQQLPGTAPKLLIYGNDQRPSGVPDRFSGSKSGTSASLAITGVQAEDEADYYCHSSESGFTGSRVFGTGTKVTVLG
As for B9, the koff was 0.00207 s⁻¹.

B10: 73-H3 (antibody, V domains shown)
VH: QVQLVQSGGGVVQPGRSLRLSCAASGFTFSSYGMHWVRQAPGKGLEWVAFIRYDGSNKYYADSVKGRFTISRDNSKNTLYLQMKSLRAEDTAVYYCTTSGSYDYWGQGTMVTVSS
VL: SYVLTQPPSVSGTPGQRVTISCSGGRSNIGSNTVKWYQQLPGTAPKLLIYGNDQRPSGVPDRFSGSKSGTSASLAITGVQAEDEADYYCHSYDNGFTGSRVFGTGTKVTVLG
Take B10: the koff turned out to be 0.00685 s⁻¹.

B11: 73-C5 (antibody, V domains shown)
VH: QVQLVQSGGGVVQPGRSLRLSCAASGFTFSSYGMHWVRQAPGKGLEWVAFIRYDGSNKYYADSVKGRFTISRDNSKNTLYLQMKSLRAEDTAVYYCTTSGSYDYWGQGTMVTVSS
VL: SYVLTQPPSVSGTPGQRVTISCSGGRSNIGSNTVKWYQQLPGTAPKLLIYGNDQRPSGVPDRFSGSKSGTSASLAITGVQAEDEADYYCHSHDRDFTGSRVFGTGTKVTVLG
In turn, B11 displayed a koff of 0.00484 s⁻¹.

B12: 73-C6 (antibody, V domains shown)
VH: QVQLVQSGGGVVQPGRSLRLSCAASGFTFSSYGMHWVRQAPGKGLEWVAFIRYDGSNKYYADSVKGRFTISRDNSKNTLYLQMKSLRAEDTAVYYCTTSGSYDYWGQGTMVTVSS
VL: SYVLTQPPSVSGTPGQRVTISCSGGRSNIGSNTVKWYQQLPGTAPKLLIYGNDQRPSGVPDRFSGSKSGTSASLAITGVQAEDEADYYCQSYDTGFTGSRVFGTGTKVTVLG
In turn, B12 had a koff of 0.00396 s⁻¹.

B13: 73-D1 (antibody, V domains shown)
VH: QVQLVQSGGGVVQPGRSLRLSCAASGFTFSSYGMHWVRQAPGKGLEWVAFIRYDGSNKYYADSVKGRFTISRDNSKNTLYLQMKSLRAEDTAVYYCTTSGSYDYWGQGTMVTVSS
VL: SYVLTQPPSVSGTPGQRVTISCSGGRSNIGSNTVKWYQQLPGTAPKLLIYGNDQRPSGVPDRFSGSKSGTSASLAITGVQAEDEADYYCHSYDSGFTGSRVFGTGTKVTVLG
B13 showed a koff of 0.00399 s⁻¹.

B14: 73-E3 (antibody, V domains shown)
VH: QVQLVQSGGGVVQPGRSLRLSCAASGFTFSSYGMHWVRQAPGKGLEWVAFIRYDGSNKYYADSVKGRFTISRDNSKNTLYLQMKSLRAEDTAVYYCTTSGSYDYWGQGTMVTVSS
VL: SYVLTQPPSVSGTPGQRVTISCSGGRSNIGSNTVKWYQQLPGTAPKLLIYGNDQRPSGVPDRFSGSKSGTSASLAITGVQAEDEADYYCQSYDSDFTGSRVFGTGTKVTVLG
Regarding B14, the koff amounted to 0.00498 s⁻¹.

B15: 73-G5 (antibody, V domains shown)
VH: QVQLVQSGGGVVQPGRSLRLSCAASGFTFSSYGMHWVRQAPGKGLEWVAFIRYDGSNKYYADSVKGRFTISRDNSKNTLYLQMKSLRAEDTAVYYCTTSGSYDYWGQGTMVTVSS
VL: SYVLTQPPSVSGTPGQRVTISCSGGRSNIGSNTVKWYQQLPGTAPKLLIYGNDQRPSGVPDRFSGSKSGTSASLAITGVQAEDEADYYCHSSDSDSTGSRVFGTGTKVTVLG
In the case of B15, the dissociation rate constant (koff) came out at 0.00601 s⁻¹.

B16: 73-F5 (antibody, V domains shown)
VH: QVQLVQSGGGVVQPGRSLRLSCAASGFTFSSYGMHWVRQAPGKGLEWVAFIRYDGSNKYYADSVKGRFTISRDNSKNTLYLQMKSLRAEDTAVYYCTTSGSYDYWGQGTMVTVSS
VL: SYVLTQPPSVSGTPGQRVTISCSGGRSNIGSNTVKWYQQLPGTAPKLLIYGNDQRPSGVPDRFSGSKSGTSASLAITGVQAEDEADYYCQSYDSDFTGSKVFGTGTKVTVLG
For B16, the koff was 0.00374 s⁻¹.

B17: 73-C2 (antibody, V domains shown)
VH: QVQLVQSGGGVVQPGRSLRLSCAASGFTFSSYGMHWVRQAPGKGLEWVAFIRYDGSNKYYADSVKGRFTISRDNSKNTLYLQMKSLRAEDTAVYYCTTSGSYDYWGQGTMVTVSS
VL: SYVLTQPPSVSGTPGQRVTISCSGGRSNIGSNTVKWYQQLPGTAPKLLIYGNDQRPSGVPDRFSGSKSGTSASLAITGVQAEDEADYYCQSYDSEFTGSRVFGTGTKVTVLG
Consider B17, for which the koff was found to be 0.00379 s⁻¹.

B18: 73-E6 (antibody, V domains shown)
VH: QVQLVQSGGGVVQPGRSLRLSCAASGFTFSSYGMHWVRQAPGKGLEWVAFIRYDGSNKYYADSVKGRFTISRDNSKNTLYLQMKSLRAEDTAVYYCTTSGSYDYWGQGTMVTVSS
VL: SYVLTQPPSVSGTPGQRVTISCSGGRSNIGSNTVKWYQQLPGTAPKLLIYGNDQRPSGVPDRFSGSKSGTSASLAITGVQAEDEADYYCHSYESGFTGSRVFGTGTKVTVLG
Take B18: the koff is 0.00417 s⁻¹.

B19: 73-G2 (antibody, V domains shown)
VH: QVQLVQSGGGVVQPGRSLRLSCAASGFTFSSYGMHWVRQAPGKGLEWVAFIRYDGSNKYYADSVKGRFTISRDNSKNTLYLQMKSLRAEDTAVYYCTTSGSYDYWGQGTMVTVSS
VL: SYVLTQPPSVSGTPGQRVTISCSGGRSNIGSNTVKWYQQLPGTAPKLLIYGNDQRPSGVPDRFSGSKSGTSASLAITGVQAEDEADYYCHTNDSGFTGSRVFGTGTKVTVLG
With B19, the koff amounted to 0.00398 s⁻¹.

B20: 73-F3 (antibody, V domains shown)
VH: QVQLVQSGGGVVQPGRSLRLSCAASGFTFSSYGMHWVRQAPGKGLEWVAFIRYDGSNKYYADSVKGRFTISRDNSKNTLYLQMKSLRAEDTAVYYCTTSGSYDYWGQGTMVTVSS
VL: SYVLTQPPSVSGTPGQRVTISCSGGRSNIGSNTVKWYQQLPGTAPKLLIYGNDQRPSGVPDRFSGSKSGTSASLAITGVQAEDEADYYCQSYDAPWSGSRVFGTGTKVTVLG
B20 displayed a koff of 0.00708 s⁻¹.
